Data published in patent US20230392166A1.

Target: GFP-BAX fusion protein
Assay: cell-based or functional assay

Substance | percentage of cells with GFP-BAX translocation to mitochondria within 3.5 h after 1 µM staurosporine, live imaging of D407 cells (control without BCLXL) [%] | percentage of cells with punctate GFP-BAX (translocation to mitochondria) within 3.5 h after 1 µM staurosporine, live imaging of D407 cells [%]
mCherry | > 95 | 
mCherry-BCLXL fusion protein (from UniProt Q64373 1-233) |  | 8
